According to patent publication US20220064312A1 (SHIONOGI, published 2022):
Residue numbers refer to the chain shown, from its start. Names and notes keep the numbering of the source. Read-outs that look alike come from different tables or passages of the source. Blank lines part the entries; values can stand above or below the binder they belong to.

Legend:
hCCR8 (Y17A) = hCCR8 (Y17A) (human, UniProt P51685 1-355); assay: flow cytometry, transfected Expi293 cells
N-ter hCCR4-hCCR8 = target: T1, N-ter hCCR4-hCCR8 (human); assay: flow cytometry, transfected Expi293 cells
T1 construct: chimera on Expi293 cells; remaining hCCR8 ranges derived from the stated swapped ranges and the 355-residue length; also called N-terminal region human CCR4-substituted human CCR8
T1 chain: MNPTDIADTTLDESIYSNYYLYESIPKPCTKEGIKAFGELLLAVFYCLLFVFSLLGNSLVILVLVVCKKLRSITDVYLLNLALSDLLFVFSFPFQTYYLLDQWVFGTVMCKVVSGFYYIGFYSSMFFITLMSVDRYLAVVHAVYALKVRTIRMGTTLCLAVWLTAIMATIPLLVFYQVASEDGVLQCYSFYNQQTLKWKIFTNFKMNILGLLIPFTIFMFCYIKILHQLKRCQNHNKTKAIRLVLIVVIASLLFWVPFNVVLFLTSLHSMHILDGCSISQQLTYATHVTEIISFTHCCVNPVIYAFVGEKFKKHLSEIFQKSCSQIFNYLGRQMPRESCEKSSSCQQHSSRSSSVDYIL

loop1 hCCR4-hCCR8 [1] = target: T2, loop1 hCCR4-hCCR8 (human, UniProt P51685 1-355); assay: flow cytometry, transfected Expi293 cells
T2 construct: chimera on Expi293 cells; hCCR8 ranges derived; also called loop 1-human CCR4-substituted human CCR8

human CCR4 = target: T3, human CCR4 (human, UniProt P51679 1-360); assay: flow cytometry, transfected Expi293 cells
T3 construct: also called hCCR4
T3 sequence: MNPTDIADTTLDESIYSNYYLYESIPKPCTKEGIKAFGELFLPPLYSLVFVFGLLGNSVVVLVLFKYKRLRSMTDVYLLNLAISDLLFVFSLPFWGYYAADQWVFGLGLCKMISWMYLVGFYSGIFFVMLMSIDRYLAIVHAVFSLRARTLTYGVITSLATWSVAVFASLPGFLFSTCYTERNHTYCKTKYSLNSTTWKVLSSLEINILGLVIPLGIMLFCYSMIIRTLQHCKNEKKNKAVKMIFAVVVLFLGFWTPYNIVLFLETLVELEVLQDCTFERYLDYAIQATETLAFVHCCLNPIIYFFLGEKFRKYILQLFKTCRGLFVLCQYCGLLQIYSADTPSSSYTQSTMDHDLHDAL

mouse CCR8 = target: T4, mouse CCR8 (mouse, UniProt P56484 1-353); assay: flow cytometry, transfected Expi293 cells
T4 construct: also called mCCR8
T4 sequence: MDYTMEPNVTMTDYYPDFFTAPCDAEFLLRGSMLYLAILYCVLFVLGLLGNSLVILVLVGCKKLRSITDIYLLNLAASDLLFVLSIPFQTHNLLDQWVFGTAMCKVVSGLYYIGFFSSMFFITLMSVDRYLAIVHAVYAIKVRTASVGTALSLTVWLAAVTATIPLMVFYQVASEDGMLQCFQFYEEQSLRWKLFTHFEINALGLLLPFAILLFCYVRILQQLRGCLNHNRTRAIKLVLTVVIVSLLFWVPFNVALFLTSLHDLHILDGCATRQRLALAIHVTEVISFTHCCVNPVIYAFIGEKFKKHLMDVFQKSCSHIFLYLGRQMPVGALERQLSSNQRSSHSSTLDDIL

loop2 hCCR4-hCCR8 [2] = target: T5, loop2 hCCR4-hCCR8 (human, UniProt P51685 1-355); assay: flow cytometry, transfected Expi293 cells; Δ = significantly reduced vs hCCR8
T5 construct: chimera on Expi293 cells; hCCR8 ranges derived; also called loop2-human CCR4-substituted human CCR8

human CCR8 [3] = target: T6, human CCR8 (human, UniProt P51685 1-355); assay: cell-based or functional assay
T6 sequence (P51685 whole entry): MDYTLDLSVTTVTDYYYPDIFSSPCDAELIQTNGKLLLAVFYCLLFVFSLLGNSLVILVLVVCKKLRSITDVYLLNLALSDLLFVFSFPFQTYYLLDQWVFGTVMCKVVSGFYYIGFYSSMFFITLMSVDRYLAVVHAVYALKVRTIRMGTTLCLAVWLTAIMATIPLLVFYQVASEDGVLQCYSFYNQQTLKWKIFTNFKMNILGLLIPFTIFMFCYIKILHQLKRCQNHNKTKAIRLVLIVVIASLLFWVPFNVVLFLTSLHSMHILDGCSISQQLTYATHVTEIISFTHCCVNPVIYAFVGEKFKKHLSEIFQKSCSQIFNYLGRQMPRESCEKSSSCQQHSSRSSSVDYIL

human CCR8 [4] = target: T6, human CCR8; assay: cell-based or functional assay; remark: listed apart in the source
hCCR8 (V180A) = hCCR8 (V180A) (human, UniProt P51685 1-355); assay: flow cytometry, transfected Expi293 cells
Experimental: (§1) In addition to the chimeras of human CCR4 and the point mutants at the N-terminal region of human CCR8 produced in Example 3, binding evaluation was also performed for point mutants at loop1 and loop2 regions of human CCR8. […] After reacting at room temperature for 3 hours, it was reacted with Alexa488-labeled Anti-human IgG antibody (Thermo Fisher Scientific) and flow cytometry analysis was performed.
(§2) In comparison to human CCR8, a mutant having binding activity of 70% or less was indicated as Δ and a mutant having binding activity of 20% or less was indicated as x.

hCCR8 (I20A) = target: T7, hCCR8 (I20A) (human, UniProt P51685 1-355); assay: flow cytometry, transfected Expi293 cells
T7 construct: also called hCCR8 (120A)
Experimental: as §1, §2

hCCR8 (D97A) = hCCR8 (D97A) (human, UniProt P51685 1-355); assay: flow cytometry, transfected Expi293 cells
Experimental: as §1, §2

hCCR8 (N188A) = hCCR8 (N188A) (human, UniProt P51685 1-355); assay: flow cytometry, transfected Expi293 cells
Experimental: as §1, §2

hCCR8 (S22A) = hCCR8 (S22A) (human, UniProt P51685 1-355); assay: flow cytometry, transfected Expi293 cells
Experimental: as §1, §2

hCCR8 (T32A) = target: T8, hCCR8 (T32A) (human, UniProt P51685 1-355); assay: flow cytometry, transfected Expi293 cells
T8 construct: also called hCCR8 (132A)
Experimental: as §1, §2

hCCR8 (L181A) = hCCR8 (L181A) (human, UniProt P51685 1-355); assay: flow cytometry, transfected Expi293 cells
Experimental: as §1, §2

loop1 hCCR4-hCCR8 [5] = target: T2, loop1 hCCR4-hCCR8; assay: flow cytometry, transfected Expi293 cells; remark: listed apart in the source
Experimental: as §1, §2

loop2 hCCR4-hCCR8 [6] = target: T5, loop2 hCCR4-hCCR8; assay: flow cytometry, transfected Expi293 cells
Experimental: as §1, §2

hCCR8 (L5A) = target: T9, hCCR8 (L5A) (human, UniProt P51685 1-355); assay: flow cytometry, transfected Expi293 cells
T9 construct: also called hCCR8 (LSA)
Experimental: as §1, §2

hCCR8 (K35A) = hCCR8 (K35A) (human, UniProt P51685 1-355); assay: flow cytometry, transfected Expi293 cells
Experimental: as §1, §2

human CCR8 [7] = target: T6, human CCR8; assay: cell-based or functional assay; remark: listed apart in the source
human CCR8 [8] = target: T6, human CCR8; assay: cell-based or functional assay; remark: listed apart in the source
human CCR8 [9] = target: T6, human CCR8; assay: cell-based or functional assay; remark: listed apart in the source

Sequence of hCCR8 (Y17A) (P51685 whole entry Y17A): as the sequence (P51685 whole entry) above, with Y17A counted along it

- binding result (hCCR8 (Y17A)): no binding
- binding result (N-ter hCCR4-hCCR8): no binding
- binding result (loop1 hCCR4-hCCR8 [1]): no binding
- binding result (human CCR4): no binding
- binding result (mouse CCR8): no binding
- binding result (loop2 hCCR4-hCCR8 [2]): binds
- IC50 (nM), Ca2+ influx by 200 nM hCCL1 (human CCR8 [3]): 1.19 nM
- Neutralizing Activity IC50 (nM), Ca2+ influx by 100 nM hCCL1 (human CCR8 [4]): 0.4 nM
B1: 2C7 (antibody, V domains shown)
VH: QVQLKQSGPSLVQPSQSLSITCTVSGFSLTAYGVHWIRQSPGKGQEWLGVIWRGGSTDYNAAFMSRLTITKDNSKSQVFFKMNSLQADDTAIYYCAKKGGSYAMDYWGQGTSVTVSS
VL: DVVLTQTPLSLPVSLGGQASISCRSSQSLVHSNGNTYLHWYLQKPGQSPKLLIYKVSNRFSGVPDRFSGSGSGTDFTLKISRVEAEDLGVYFCSQSTQVPLTFGAGTKLELKR
notes: mouse hybridoma antibody

- binding activity in comparison to human CCR8 (hCCR8 (V180A)): ≤ 70%
- binding activity in comparison to human CCR8 (hCCR8 (I20A)): ≤ 70%
- binding activity in comparison to human CCR8 (hCCR8 (D97A)): ≤ 70%
- binding activity in comparison to human CCR8 (hCCR8 (N188A)): ≤ 70%
- binding activity in comparison to human CCR8 (hCCR8 (S22A)): ≤ 70%
- binding activity in comparison to human CCR8 (hCCR8 (T32A)): ≤ 70%
- binding activity in comparison to human CCR8 (hCCR8 (L181A)): ≤ 70%
- binding activity in comparison to human CCR8 (loop1 hCCR4-hCCR8 [5]): ≤ 70%
- binding activity in comparison to human CCR8 (loop2 hCCR4-hCCR8 [6]): ≤ 70%
- binding activity in comparison to human CCR8 (hCCR8 (L5A)): ≤ 70%
- binding activity in comparison to human CCR8 (hCCR8 (K35A)): ≤ 70%
- IC50 (nM), Ca2+ influx by 200 nM hCCL1 (human CCR8 [7]): 0.15 nM
- IC50 ratio (WT IC50/mutant IC50) (human CCR8 [8]): 1 ratio
B2: h10A11 (IGKV4-1/IGHV3-15 T94R) (antibody, V domains shown)
VH: EVQLVESGGALVKPGGSLRLSCAASGFTFSTYALYWVRQAPGKGLEWVGRIRSKSNNYATYYADSVKDRFTISRDDSKNTLYLQMNSLKTEDTAVYYCTRARFYYSDYGYAMDYWGQGTLVTVSS
VL: DIVMTQSPDSLAVSLGERATINCRSSKSLLHSNGNTYLYWYQQKPGQPPKLLIYRMSNLASGVPDRFSGSGSGTDFTLTISSLQAEDVAVYYCMQHLEYPLTFGQGTKLEIKR
notes: humanized; detected with anti-human IgG; also called humanized 10A11 antibody (light chain variable region: IGKV4-1/heavy chain variable region: IGHV3-15 T94R)

- IC50 (nM), Ca2+ influx by 200 nM hCCL1 (human CCR8 [7]): 0.17 nM
- IC50 ratio (WT IC50/mutant IC50) (human CCR8 [9]): 1 ratio
B3: h10A11 (IGKV4-1/IGHV3-73) (antibody, V domains shown)
VH: B2 VH with A10G, K13Q, R19K, T28A, S30N, P41S, L81A
VL: B2 VL
